Measured values taken from patent US12194095B2, “Combinations and uses thereof” (Incyte Corporation, priority 2015, dated 2025).

System: MEC-1 cells
Experiment: ADCC cytotoxicity (target cell killing) of MEC-1 cells with NK cells, MOR00208 and Idelalisib alone and in combination
Type: cell-based, human
Experimental: The cytotoxicity of MOR00208 and Idelalisib alone and in combination were tested in the MEC-1 cell line.
Idelalisib is a phosphoinositide 3-kinase inhibitor; more specifically, it blocks P110δ, the delta isoform of the enzyme phosphoinositide 3-kinase. […] MOR00208 targets CD19 and mediates target cell killing via ADCC.
The following were used as controls: a) MEC-1 cells+RefmAb33+DMSO+NK cells, b) MEC-1 cells+DMSO+NK cells, c) MEC-1 cells+DMSO.
Target cell killing was measured using the following parameters: Idelalisib at concentrations of 0.3, 1, 3 and 10 μM; MOR00208 at concentrations of 1.5, 0.015 and 0.0015 μg/ml and the combination of MOR00208 and Idelalisib at the same concentrations.
In the Idelalisib group, […] in the MOR00208+Idelalisib combination group, target cells were pre-treated with Idelalisib for 7 days prior to the ADCC assay measurements. The target cells were counted and stained using 10 μM CFSE end concentration. For DMSO treated target cells, an effector:target (E:T) ratio of 2:1 is chosen, corresponding to a cell density of 5×10^5/ml. The proliferative effect on target cells caused by Idelalisib treatment was included by adjusting the E:T ratio in inhibitor treated cells. The NK cells are counted and adjusted to 1×10^6/ml. The target cell killing assays were performed as follows: using 96 well plates, 100 μl of target cell suspension was added per well, followed by 100 μl cell suspension of NK cells to each well resulting in an E:T ratio of 2:1. The antibodies were diluted in a range of 10-0.00001 nM (corresponding to 1.5-0.0000015 μg/ml) in medium. Cells were centrifuged and target:effector cell-pellets were re-suspended in 100 μl antibody-containing medium or the according control solution. The assay was incubated for 4 h in CO2-incubator at 37° C. After 10 min incubation on ice, 50 μl DAPI solution was added to each well (final concentration 1 μg/ml) and incubated on ice for 10 min. The cell killing measurements were performed with FACS-Verse. Dead target cells were DAPI positive.
In total, six experiments were performed in order to determine the mediation of ADCC on MEC-1 cells by the combination of MOR00208 and Idelalisib. […] The autoreactivity of the NK cells prevented a proper analysis in those two experiments.
The % dead cells (raw data) from Tables 1-16 was analysed in the following way:
[formula] [formula] [formula] where A is the treatment with MOR00208 alone; B is the treatment with Idelalisib alone; C is response to the control DMSO+RefMab33; AB is the combination of treatments A and B.
In order to confirm the results of synergy as calculated using Clarke et al. above, the Combination Index (CI) method was applied to the % dead cells (raw data) of Tables 1-16. For CI calculations, we used 0.3, 1, 3 and 10 μM Idelalisib and three MOR208 concentrations (1.5, 0.015 and 0.0015 μg/ml).

B1: MOR00208: anti-CD19 antibody; variable domains in FIG. 1, Fc regions in FIG. 2 (antibody)
heavy: EVQLVESGGGLVKPGGSLKLSCAASGYTFTSYVMHWVRQAPGKGLEWIGYINPYNDGTKYNEKFQGRVTISSDKSISTAYMELSSLRSEDTAMYYCARGTYYYGTRVFDYWGQGTLVTVSSASTKGPSVFPLAPSSKSTSGGTAALGCLVKDYFPEPVTVSWNSGALTSGVHTFPAVLQSSGLYSLSSVVTVPSSSLGTQTYICNVNHKPSNTKVDKKVEPKSCDKTHTCPPCPAPELLGGPDVFLFPPKPKDTLMISRTPEVTCVVVDVSHEDPEVQFNWYVDGVEVHNAKTKPREEQFNSTFRVVSVLTVVHQDWLNGKEYKCKVSNKALPAPEEKTISKTKGQPREPQVYTLPPSREEMTKNQVSLTCLVKGFYPSDIAVEWESNGQPENNYKTTPPMLDSDGSFFLYSKLTVDKSRWQQGNVFSCSVMHEALHNHYTQKSLSLSPGK
light: DIVMTQSPATLSLSPGERATLSCRSSKSLQNVNGNTYLYWFQQKPGQSPQLLIYRMSNLNSGVPDRFSGSGSGTEFTLTISSLEPEDFAVYYCMQHLEYPITFGAGTKLEIKRTVAAPSVFIFPPSDEQLKSGTASVVCLLNNFYPREAKVQWKVDNALQSGNSQESVTEQDSKDSTYSLSSTLTLSKADYEKHKVYACEVTHQGLSSPVTKSFNRGEC
Experiment 1, Idelalisib 0.3 μM, MOR00208 0.01 nM (0.0015 μg/ml)
  % dead cells: 40.3%
Experiment 1, Idelalisib 0.3 μM, MOR00208 0.1 nM (0.015 μg/ml)
  % dead cells: 63.1%
Experiment 1, Idelalisib 0.3 μM, MOR00208 10 nM (1.5 μg/ml)
  % dead cells: 62.9%
Experiment 1, Idelalisib 1 μM, MOR00208 0.01 nM (0.0015 μg/ml)
  % dead cells: 40.3%
Experiment 1, Idelalisib 1 μM, MOR00208 0.1 nM (0.015 μg/ml)
  % dead cells: 63.1%
Experiment 1, Idelalisib 1 μM, MOR00208 10 nM (1.5 μg/ml)
  % dead cells: 62.9%
Experiment 1, Idelalisib 3 μM, MOR00208 0.01 nM (0.0015 μg/ml)
  % dead cells: 40.3%
Experiment 1, Idelalisib 3 μM, MOR00208 0.1 nM (0.015 μg/ml)
  % dead cells: 63.1%
Experiment 1, Idelalisib 3 μM, MOR00208 10 nM (1.5 μg/ml)
  % dead cells: 62.9%
Experiment 1, Idelalisib 10 μM, MOR00208 0.01 nM (0.0015 μg/ml)
  % dead cells: 40.3%
Experiment 1, Idelalisib 10 μM, MOR00208 0.1 nM (0.015 μg/ml)
  % dead cells: 63.1%
Experiment 1, Idelalisib 10 μM, MOR00208 10 nM (1.5 μg/ml)
  % dead cells: 62.9%
Experiment 2, Idelalisib 0.3 μM, MOR00208 0.01 nM (0.0015 μg/ml)
  % dead cells: 52.9%
Experiment 2, Idelalisib 0.3 μM, MOR00208 0.1 nM (0.015 μg/ml)
  % dead cells: 78.9%
Experiment 2, Idelalisib 0.3 μM, MOR00208 10 nM (1.5 μg/ml)
  % dead cells: 85.6%
Experiment 2, Idelalisib 1 μM, MOR00208 0.01 nM (0.0015 μg/ml)
  % dead cells: 52.9%
Experiment 2, Idelalisib 1 μM, MOR00208 01 nM (0.015 μg/ml)
  % dead cells: 78.9%
Experiment 2, Idelalisib 1 μM, MOR00208 10 nM (1.5 μg/ml)
  % dead cells: 85.6%
Experiment 2, Idelalisib 3 μM, MOR00208 0.01 nM (0.0015 μg/ml)
  % dead cells: 52.9%
Experiment 2, Idelalisib 3 μM, MOR00208 0.1 nM (0.015 μg/ml)
  % dead cells: 78.9%
Experiment 2, Idelalisib 3 μM, MOR00208 10 nM (1.5 μg/ml)
  % dead cells: 85.6%
Experiment 2, Idelalisib 10 μM, MOR00208 0.01 nM (0.0015 μg/ml)
  % dead cells: 52.9%
Experiment 2, Idelalisib 10 μM, MOR00208 0.1 nM (0.015 μg/ml)
  % dead cells: 78.9%
Experiment 2, Idelalisib 10 μM, MOR00208 10 nM (1.5 μg/ml)
  % dead cells: 85.6%
Experiment 3, Idelalisib 0.3 μM, MOR00208 0.01 nM (0.0015 μg/ml)
  % dead cells: 43.5%
Experiment 3, Idelalisib 0.3 μM, MOR00208 0.1 nM (0.015 μg/ml)
  % dead cells: 59.5%
Experiment 3, Idelalisib 0.3 μM, MOR00208 10 nM (1.5 μg/ml)
  % dead cells: 62.0%
Experiment 3, Idelalisib 1 μM, MOR00208 0.01 nM (0.0015 μg/ml)
  % dead cells: 43.5%
Experiment 3, Idelalisib 1 μM, MOR00208 0.1 nM (0.015 μg/ml)
  % dead cells: 59.5%
Experiment 3, Idelalisib 1 μM, MOR00208 10 nM (1.5 μg/ml)
  % dead cells: 62.0%
Experiment 3, Idelalisib 3 μM, MOR00208 0.01 nM (0.0015 μg/ml)
  % dead cells: 43.5%
Experiment 3, Idelalisib 3 μM, MOR00208 0.1 nM (0.015 μg/ml)
  % dead cells: 59.5%
Experiment 3, Idelalisib 3 μM, MOR00208 10 nM (1.5 μg/ml)
  % dead cells: 62.0%
Experiment 3, Idelalisib 10 μM, MOR00208 0.01 nM (0.0015 μg/ml)
  % dead cells: 43.5%
Experiment 3, Idelalisib 10 μM, MOR00208 0.1 nM (0.015 μg/ml)
  % dead cells: 59.5%
Experiment 3, Idelalisib 10 μM, MOR00208 10 nM (1.5 μg/ml)
  % dead cells: 62.0%
Experiment 4, Idelalisib 0.3 μM, MOR00208 0.01 nM (0.0015 μg/ml)
  % dead cells: 56.3%
Experiment 4, Idelalisib 0.3 μM, MOR00208 0.1 nM (0.015 μg/ml)
  % dead cells: 73.3%
Experiment 4, Idelalisib 0.3 μM, MOR00208 10 nM (1.5 μg/ml)
  % dead cells: 74.6%
Experiment 4, Idelalisib 1 μM, MOR00208 0.01 nM (0.0015 μg/ml)
  % dead cells: 56.3%
Experiment 4, Idelalisib 1 μM, MOR00208 0.1 nM (0.015 μg/ml)
  % dead cells: 73.3%
Experiment 4, Idelalisib 1 μM, MOR00208 10 nM (1.5 μg/ml)
  % dead cells: 74.6%
Experiment 4, Idelalisib 3 μM, MOR00208 0.01 nM (0.0015 μg/ml)
  % dead cells: 56.3%
Experiment 4, Idelalisib 3 μM, MOR00208 0.1 nM (0.015 μg/ml)
  % dead cells: 73.3%
Experiment 4, Idelalisib 3 μM, MOR00208 10 nM (1.5 μg/ml)
  % dead cells: 74.6%
Experiment 4, Idelalisib 10 μM, MOR00208 0.01 nM (0.0015 μg/ml)
  % dead cells: 56.3%
Experiment 4, Idelalisib 10 μM, MOR00208 0.1 nM (0.015 μg/ml)
  % dead cells: 73.3%
Experiment 4, Idelalisib 10 μM, MOR00208 10 nM (1.5 μg/ml)
  % dead cells: 74.6%
